Here are results for two molecules from publication PMC4521160, “Glass is a Viable Substrate for Precision Force Microscopy of Membrane Proteins” (Scientific Reports, 2015).

The target of assay [1] is T1, bacteriorhodopsin from Halobacterium salinarum (Halobacterium salinarum), P02945.
T1 chain: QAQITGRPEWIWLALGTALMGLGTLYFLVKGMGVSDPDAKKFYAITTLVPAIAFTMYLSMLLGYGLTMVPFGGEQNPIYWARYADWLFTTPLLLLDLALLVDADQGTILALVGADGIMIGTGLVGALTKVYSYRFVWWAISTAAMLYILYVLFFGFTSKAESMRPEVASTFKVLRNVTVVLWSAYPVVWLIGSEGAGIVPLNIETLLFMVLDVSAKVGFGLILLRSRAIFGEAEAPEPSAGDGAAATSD
Nature of the assay: atomic force microscopy (AFM) imaging; purple membrane on KOH-treated glass (20 mM Tris pH ~8.5, 200 mM KCl, 20 mM MgCl2) and on mica (10 mM Tris pH ~7.6, 150 mM KCl); tapping mode, ~30 °C; correlation averaging. The settings on record: remark: other sources report otherwise.

The next assay deals with T2, ATPase SecA (E. coli, UniProt P10408 1-901).
T2 construct: SecA, ATPase of the general secretory system of E. coli; SecA was added for coassembly 'at 5 μM dimer'; Zinc is kept in SecA by the purification; also called peripheral membrane protein SecA; source: purified from the supernatant of lysed cells (QAE column)
Put plainly: atomic force microscopy (AFM) imaging; proteoliposomes of coassembled SecYEG and SecA deposited on KOH-treated glass (height histograms also on mica); tapping mode, ~30 °C, 10 mM HEPES pH 8.0, 200 mM KAc, 5 mM MgAc2; single translocons tracked for >1800 s. To be noted: both partners purified.

T2 sequence (P10408 whole entry): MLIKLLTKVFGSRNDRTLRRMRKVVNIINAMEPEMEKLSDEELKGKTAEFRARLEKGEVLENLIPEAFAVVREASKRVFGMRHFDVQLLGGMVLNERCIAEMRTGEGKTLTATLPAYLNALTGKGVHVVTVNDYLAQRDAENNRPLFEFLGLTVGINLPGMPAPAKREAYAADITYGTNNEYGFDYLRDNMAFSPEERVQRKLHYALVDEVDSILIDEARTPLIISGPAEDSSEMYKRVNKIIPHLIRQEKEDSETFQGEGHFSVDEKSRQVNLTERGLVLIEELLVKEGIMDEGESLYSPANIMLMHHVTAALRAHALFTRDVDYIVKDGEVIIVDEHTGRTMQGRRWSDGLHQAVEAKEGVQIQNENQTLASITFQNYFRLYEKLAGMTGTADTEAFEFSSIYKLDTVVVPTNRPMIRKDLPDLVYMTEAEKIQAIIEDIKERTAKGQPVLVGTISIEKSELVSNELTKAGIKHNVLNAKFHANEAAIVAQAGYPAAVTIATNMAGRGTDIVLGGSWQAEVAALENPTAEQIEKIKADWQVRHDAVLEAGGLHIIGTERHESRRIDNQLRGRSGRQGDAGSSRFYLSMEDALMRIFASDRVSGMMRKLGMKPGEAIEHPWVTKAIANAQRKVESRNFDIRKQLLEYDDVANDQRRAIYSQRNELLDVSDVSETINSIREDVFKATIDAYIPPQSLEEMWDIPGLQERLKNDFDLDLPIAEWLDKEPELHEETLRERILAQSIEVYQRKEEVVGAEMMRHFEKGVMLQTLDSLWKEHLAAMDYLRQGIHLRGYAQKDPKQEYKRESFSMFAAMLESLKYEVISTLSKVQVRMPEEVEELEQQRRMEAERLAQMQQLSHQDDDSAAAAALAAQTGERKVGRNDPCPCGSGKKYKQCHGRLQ

B1: bacteriorhodopsin from Halobacterium salinarum, P02945 14-262 (natural protein)
chain: T1 chain
modifications: here or on the partner: retinal chromophore; retinal chromophore
With B1, in assay [1], the stoichiometry N (commonly a count of units in the complex or per binding partner) is 3.

B2: SecYEG translocon from Escherichia coli (complex, E. coli)
chain 1: MAKQPGLDFQSAKGGLGELKRRLLFVIGALIVFRIGSFIPIPGIDAAVLAKLLEQQRGTIIEMFNMFSGGALSRASIFALGIMPYISASIIIQLLTVVHPTLAEIKKEGESGRRKISQYTRYGTLVLAIFQSIGIATGLPNMPGMQGLVINPGFAFYFTAVVSLVTGTMFLMWLGEQITERGIGNGISIIIFAGIVAGLPPAIAHTIEQARQGDLHFLVLLLVAVLVFAVTFFVVFVERGQRRIVVNYAKRQQGRRVYAAQSTHLPLKVNMAGVIPAIFASSIILFPATIASWFGGGTGWNWLTTISLYLQPGQPLYVLLYASAIIFFSFFYTALVFNPRETADNLKKSGAFVPGIRPGEQTAKYIDKVMTRLTLVGALYITFISLIPEFMRDAMKVPFYFGGTSLLIVVVVIMDFMAQVQTLMMSSQYESALKKANLKGYGR
chain 2: MSANTEAQGSGRGLEAMKWVVVVALLLVAIVGNYLYRDIMLPLRALAVVILIAAAGGVALLTTKGKATVAFAREARTEVRKVIWPTRQETLHTTLIVAAVTAVMSLILWGLDGILVRLVSFITGLRF
chain 3: MYEALLVVFLIVAIGLVGLIMLQQGKGADMGASFGAGASATLFGSSGSGNFMTRMTALLATLFFIISLVLGNINSNKTNKGSEWENLSAPAKTEQTQPAAPAKPTSDIPN
notes: SecY of the E. coli translocon SecYEG, with C329S and C385S; SecE of the E. coli translocon SecYEG; SecG of the E. coli translocon SecYEG; In the assay the complex stood in a lipid bilayer supported by glass (or mica); also called bacterial translocon; copies: + +
As to B2, in the assay with ATPase SecA, the binding result was “binds”.
